# Reference: PMC9579167, “Structure of the proteolytic enzyme PAPP-A with the endogenous inhibitor stanniocalcin-2 reveals its inhibitory mechanism” (Nature Communications, 2022)
# T1: 415-residue monomeric C-terminal PAPP-A fragment, PA(T1213-G1627) (human, UniProt Q13219 1213-1627)
# T1 construct: PAPP-A, human, residues T1213-G1627 (SCR1-5 and the C domain with LNR3); also called PAPP-A(T1213-G1627); C-terminal fragment of PAPP-A truncated at SCR1; source: 293T cells, transient transfection
# T1 sequence (looked up): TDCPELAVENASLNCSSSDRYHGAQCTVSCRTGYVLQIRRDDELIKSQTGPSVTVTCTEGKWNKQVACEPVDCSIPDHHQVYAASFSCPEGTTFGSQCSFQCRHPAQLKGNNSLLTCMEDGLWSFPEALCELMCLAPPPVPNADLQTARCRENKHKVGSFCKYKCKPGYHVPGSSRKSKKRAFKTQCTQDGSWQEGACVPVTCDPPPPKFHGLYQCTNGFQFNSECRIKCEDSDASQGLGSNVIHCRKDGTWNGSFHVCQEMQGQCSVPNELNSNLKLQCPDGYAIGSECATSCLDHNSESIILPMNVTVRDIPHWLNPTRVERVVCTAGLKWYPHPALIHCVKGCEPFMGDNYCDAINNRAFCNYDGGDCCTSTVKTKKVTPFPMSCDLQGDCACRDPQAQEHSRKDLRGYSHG
# What was measured:
# [1] = biological target: the molecule itself; test: cryo-EM structure; single-particle cryo-EM of the purified 2:2 PAPP-A(E563Q)·STC2 complex from co-cultured 293T lines; 0.6 mg/mL; 20 mM HEPES, 100 mM NaCl, 1 mM CaCl2, pH 7.4
# [2] = biological target: T1, 415-residue monomeric C-terminal PAPP-A …; test: SPR; Biacore 3000, 25 °C; PA_T1213-G1627 amine-coupled to CM5 (7000 RU); IGFBP-4 injected 5 min at 10 µl/min; 10 mM HEPES pH 7.5, 150 mM NaCl, 2 mM CaCl2, 0.05% Tween-20; also with 10 mM EDTA; conditions: both partners purified
binding result [2],Binder,binding result [1]
–,"active site-inactivated human PAPP-A (E563Q) (enzyme, UniProt Q13219 82-1627, looked up, N-glycans at N390, N402, N429, N480, N601, N725, N825, N1323, numbers count on UniProt Q13219; also called pregnancy-associated plasma protein-A; pappalysin-1) EARGATEEPSPPSRALYFSGRGEQLRLRADLELPRDAFTLQVWLRAEGGQRSPAVITGLYDKCSYISRDRGWVVGIHTISDQDNKDPRYFFSLKTDRARQVTTINAHRSYLPGQWVYLAATYDGQFMKLYVNGAQVATSGEQVGGIFSPLTQKCKVLMLGGSALNHNYRGYIEHFSLWKVARTQREILSDMETHGAHTALPQLLLQENWDNVKHAWSPMKDGSSPKVEFSNAHGFLLDTSLEPPLCGQTLCDNTEVIASYNQLSSFRQPKVVRYRVVNLYEDDHKNPTVTREQVDFQHHQLAEAFKQYNISWELDVLEVSNSSLRRRLILANCDISKIGDENCDPECNHTLTGHDGGDCRHLRHPAFVKKQHNGVCDMDCNYERFNFDGGECCDPEITNVTQTCFDPDSPHRAYLDVNELKNILKLDGSTHLNIFFAKSSEEELAGVATWPWDKEALMHLGGIVLNPSFYGMPGHTHTMIHQIGHSLGLYHVFRGISEIQSCSDPCMETEPSFETGDLCNDTNPAPKHKSCGDPGPGNDTCGFHSFFNTPYNNFMSYADDDCTDSFTPNQVARMHCYLDLVYQGWQPSRKPAPVALAPQVLGHTTDSVTLEWFPPIDGHFFERELGSACHLCLEGRILVQYASNASSPMPCSPSGHWSPREAEGHPDVEQPCKSSVRTWSPNSAVNPHTVPPACPEPQGCYLELEFLYPLVPESLTIWVTFVSTDWDSSGAVNDIKLLAVSGKNISLGPQNVFCDVPLTIRLWDVGEEVYGIQIYTLDEHLEIDAAMLTSTADTPLCLQCKPLKYKVVRDPPLQMDVASILHLNRKFVDMDLNLGSVYQYWVITISGTEESEPSPAVTYIHGSGYCGDGIIQKDQGEQCDDMNKINGDGCSLFCRQEVSFNCIDEPSRCYFHDGDGVCEEFEQKTSIKDCGVYTPQGFLDQWASNASVSHQDQQCPGWVIIGQPAASQVCRTKVIDLSEGISQHAWYPCTISYPYSQLAQTTFWLRAYFSQPMVAAAVIVHLVTDGTYYGDQKQETISVQLLDTKDQSHDLGLHVLSCRNNPLIIPVVHDLSQPFYHSQAVRVSFSSPLVAISGVALRSFDNFDPVTLSSCQRGETYSPAEQSCVHFACEKTDCPELAVENASLNCSSSDRYHGAQCTVSCRTGYVLQIRRDDELIKSQTGPSVTVTCTEGKWNKQVACEPVDCSIPDHHQVYAASFSCPEGTTFGSQCSFQCRHPAQLKGNNSLLTCMEDGLWSFPEALCELMCLAPPPVPNADLQTARCRENKHKVGSFCKYKCKPGYHVPGSSRKSKKRAFKTQCTQDGSWQEGACVPVTCDPPPPKFHGLYQCTNGFQFNSECRIKCEDSDASQGLGSNVIHCRKDGTWNGSFHVCQEMQGQCSVPNELNSNLKLQCPDGYAIGSECATSCLDHNSESIILPMNVTVRDIPHWLNPTRVERVVCTAGLKWYPHPALIHCVKGCEPFMGDNYCDAINNRAFCNYDGGDCCTSTVKTKKVTPFPMSCDLQGDCACRDPQAQEHSRKDLRGYSHG",binds
binds,"human IGFBP-4 (natural protein, UniProt P22692 22-258, looked up, also called pBP4mH; source: 293T cells, transient transfection) DEAIHCPPCSEEKLARCRPPVGCEELVREPGCGCCATCALGLGMPCGVYTPRCGSGLRCYPPRGVEKPLHTLMHGQGVCMELAEIEAIQESLQPSDKDEGDHPNNSFSPCSAHDRRCLQKHFAKIRDRSTSGGKMKVNGAPREDARPVPQGSCQSELHRALERLAASQSRTHEDLYIIPIPNCDRNGNFHPKQCHPALDGQRGKCWCVDRKTGVKLPGGLEPKGELDCHQLADSFRE",–
